From patent US20210198377A1 (XDCEXPLORER SHANGHAI, published 2021)

T1: human TPBG-hFc (human, UniProt Q13641 32-355)
T1 construct: also called immunogen A; hFc tagged TPBG protein; not shown: The human IgG Fc fragment of the pCpC vector (Invitrogen V044-50) and any linker to it
T1 sequence: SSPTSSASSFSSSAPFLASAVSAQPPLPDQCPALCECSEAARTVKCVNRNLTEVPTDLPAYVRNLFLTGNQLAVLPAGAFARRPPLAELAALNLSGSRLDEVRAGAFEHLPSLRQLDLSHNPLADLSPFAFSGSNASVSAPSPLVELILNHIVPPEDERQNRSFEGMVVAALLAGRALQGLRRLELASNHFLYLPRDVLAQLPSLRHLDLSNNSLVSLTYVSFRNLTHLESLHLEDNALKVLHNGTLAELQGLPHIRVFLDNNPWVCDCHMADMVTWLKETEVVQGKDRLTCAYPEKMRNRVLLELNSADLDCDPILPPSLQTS

T2: human TPBG (full length, on cells) (human, UniProt Q13641 32-420)
T2 construct: whole, on cells; On transfected HEK293 or CHO-K1 cells; for the tumour lines NCI-H1568 and NCI-H1299 it is the cells' own TPBG; also called hTPBG; 5T4
T2 sequence (looked up): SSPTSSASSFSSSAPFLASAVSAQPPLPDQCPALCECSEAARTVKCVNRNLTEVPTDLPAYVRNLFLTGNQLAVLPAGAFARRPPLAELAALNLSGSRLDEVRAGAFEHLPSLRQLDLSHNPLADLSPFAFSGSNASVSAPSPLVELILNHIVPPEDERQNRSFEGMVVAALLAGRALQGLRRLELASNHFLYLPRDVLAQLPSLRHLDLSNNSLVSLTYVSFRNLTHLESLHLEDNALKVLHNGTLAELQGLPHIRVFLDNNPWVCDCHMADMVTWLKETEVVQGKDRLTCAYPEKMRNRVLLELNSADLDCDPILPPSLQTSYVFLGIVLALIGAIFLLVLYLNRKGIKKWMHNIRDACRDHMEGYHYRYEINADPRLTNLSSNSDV


Assays:
human TPBG-hFc [1] = target: T1, human TPBG-hFc; assay: ELISA, coated human TPBG-hFc 1.0 ug/mL; antibody 200 nM
Description: (§1) The purified immunogen A (as for its method of preparation please refer to step 1 in Example 1) diluting with PBS to a final concentration of 1.0 μg/mL was aliquoted into a 96-well ELISA plate at 100 μL per well, and sealed with a parafilm and incubated at 4° C. overnight. The plate was washed twice with plate washing buffer (PBS containing 0.01% (v/v) Tween 20), and blocked with blocking buffer (PBS containing 0.01% (v/v) Tween 20 and 1% (w/w) BSA) at room temperature for 2 h. The blocking buffer was discarded, and 100 μL per well of the purified antibody obtained from Embodiment 2 was added. After incubating at 37° C. for 2 h, the plate was washed for three times with plate washing buffer (PBS containing 0.01% (v/v) Tween 20). HRP (horseradish peroxidase)-labeled secondary antibody (purchased from Sigma) was added and incubated at 37° C. for 2 h, and the plate was washed for three times using plate washing buffer (PBS containing 0.01% (v/v) Tween 20). 100 μL of TMB substrate was aliquoted into each well, incubated at room temperature for 30 min, and 100 μL of stop buffer (1.0N HCl) per well was subsequently added. A₄₅₀ₙₘ values were read using the ELISA plate reader (SpectraMax 384plus purchased from Molecular Device), and the results were shown in FIG. 6 and table 6. […] In Table 6 the IgG control herein is a mice IgG control, the data in the Table are OD₄₅₀ₘₙ values, and Blank means the OD₄₅₀ₘₙ value when there is only PBS buffer in the plate.

human TPBG-hFc [2] = target: T1, human TPBG-hFc; assay: ELISA, coated human TPBG-hFc 1.0 ug/mL; antibody 0.02 nM
Description: as §1

human TPBG-hFc [3] = target: T1, human TPBG-hFc; assay: ELISA, coated human TPBG-hFc 1.0 ug/mL; antibody 2 nM
Description: as §1

human TPBG-hFc [4] = target: T1, human TPBG-hFc; assay: ELISA, coated human TPBG-hFc 1.0 ug/mL; antibody 0.002 nM
Description: as §1

[5] = target: T2, human TPBG (full length, on cells); assay: FACS on CHO-K1-hTPBG cells
Description: The stable cell lines CHO-k1-hTPBG, CHO-k1-cTPBG, CHO-k1-mTPBG (i.e. the CHO-k1-hTPBG 3A2F1, CHO-k1-cTPBG 3F13G4 and CHO-k1-mTPBG 3A3 shown in table 7) and CHO-K1 cells were expanded to a 90% of confluency in T-75 cell culture flasks, the culture medium were removed, and cells were then rinsed twice with HBSS buffer (Hanks Balanced Salt Solution, purchased from Invitrogen) and lysed with enzyme-free cell dissociation buffer (Versene solution purchased from Life technology) and harvested. Harvested cells were rinsed with HBSS buffer twice and counted before diluting with HBSS buffer to 2×10⁶ cells /mL, and 10% goat serum blocking buffer was then added, wherein the percentage is the mass percentage. Cells were incubated on ice for 30 min, and then washed twice with HBSS buffer by centrifugation. The harvested cells were resuspended with FACS buffer (HBSS+1% BSA, wherein the percentage is mass percentage) to a concentration of 2×10⁶ cells /mL. 100 μL per well of the cells was aliquoted to 96-well FACS reaction plates, and 100 μL per well of test sample—the purified TPBG antibody obtaining from Embodiment 2 was added before incubating on ice for 2 h. The plate was washed with the FACS buffer twice by centrifugation, and 100 μL per well of fluorescence (Alexa 488) labeled secondary antibody (purchased from Invitrogen) was then added and incubated on ice for 1 h. The plate was washed with the FACS buffer for three times by centrifugation, follow by resuspending in 100 μL of fixation buffer (4% (v/v) paraformaldehyde). Cells were washed with FACS buffer twice after 10 min, follow by resuspending with 100 μL of FACS buffer. The results were measured and analyzed by FACS (FACS Calibur, purchased from BD). Data analysis was performed by software (CellQuest) to obtain mean fluorescence intensity (MFI) of the cells, follow by calculating EC50 value by software (GraphPad Prism) analysis and data fitting. The analysis results were shown in Table 8 and FIGS. 7-10, and data in FIGS. 7-10 show the mean fluorescence intensity (MFI) of cells.

Binder | OD450nm (human TPBG-hFc [1]) | OD450nm (human TPBG-hFc [2]) | OD450nm (human TPBG-hFc [3]) | OD450nm (human TPBG-hFc [4]) | EC50 [5]
12B12C7C3 (antibody, V domains shown, Mouse hybridoma antibody purified from culture supernatant; also called TPBG antibody; lead antibody) VH: DVQLVESGGGLVQPGGSRKLSCAASGFTFSNFGMHWVRQAPEKGLEWVAYISSGSTSFYYADTVKGRFTISRDNPKNTLFLQMTSLRSEDTAMYYCSRTNSLLRGFFDAWGAGTTVTVSS VL: DIVLTQSPASLAVSLGQRATISCRASQSVSSSSYTYLHWYQQKPGQPPKLLIKSASNLESGVPARFSGTGSGTDFTLNIHPVEEEDTATYYCQHSWEIPLTFGAGTKLELK | 2.82 OD450nm | 0.29 OD450nm | 2.84 OD450nm | 0.13 OD450nm | 0.65 nM
36A10D8B12 (antibody, V domains shown, Mouse hybridoma antibody purified from culture supernatant; also called TPBG antibody; lead antibody) VH: DVQLQESGPGMVKPSQSLSLTCTVTGYSITSGYDWHWIRHFPGNKLEWMGYISYSGNTNYNPSLKSRISITHNTSKNHFFLRLNSVTTEDTATYYCARGYGNWDAMDYWGQGTSVTVSS VL: DIVMTQSQKFMSTSVGDRVSVTCKASQIVDTNVAWYQQKPGQSPKALISSASYRYSGVPDRFTGSGSGTDFTLTISNVQSEDLAEYFCQQYNSYPLTFGAGTKLELT | 2.51 OD450nm | 0.51 OD450nm | 3.06 OD450nm | 0.18 OD450nm | 0.94 nM
5G4H10G5 (antibody, V domains shown, Mouse hybridoma antibody purified from culture supernatant; also called TPBG antibody; lead antibody) VH: EVQLVESGGDLVQPGGSLKLFCAASGFTFSTYGLSWVRQTPDKRLELVATITNNDGSAYYPDSVKGRFTISRDKAKNTLFLQMTSLKSEDTAMYYCARETGFGSSYLFDYWGQGTLVTVSA VL: NIVMTQTPKFLLVSAGDRVTITCKASQSVSNDVAWYQQKPGQSPKLLIYFATNRYTGVPNRFTGSGYGTEFTFTISSVQAEDLAVYFCQQDYSSPTFGGGTKLEIK | 2.72 OD450nm | 0.34 OD450nm | 2.68 OD450nm | 0.1 OD450nm | 1.75 nM
37H9C5G2 (antibody, V domains shown, Mouse hybridoma antibody purified from culture supernatant; also called TPBG antibody; lead antibody) VH: QVQLQQSDAELVRPGASVKMSCKVSGYTFTDHTIHWMKQRPEQGLEWIGYIYPRDGSGTYNEKFKGKATLTADKSSSTAYMQLNSLTSEDSAVYFCARDGSSHYWYFDVWGTGTTVTVSS VL: DIQMTQSPASLSASVGETVTITCRASEIIYNYLAWYQQKQGKSPQLLVYNAKTLAEGVPSRFSGSYSGTQFSLNINSLQSEDFGIYYCQHHHDTPLTFGAGTKLDLK | 2.61 OD450nm | 0.35 OD450nm | 2.52 OD450nm | 0.11 OD450nm | 0.94 nM
52C9E9F6 (antibody, V domains shown, Mouse hybridoma antibody purified from culture supernatant; also called TPBG antibody; lead antibody) VH: QVQLQQSGAELMKPGASVKLSCKATGYTFTGYWIEWIKQRPGHGLEWIGEILPGRGSTDYNEKFKGKATFTADTSSNTAYMQLSSLTTEDSAIYYCTRGRLDFTYWGQGTLVTVSA VL: DIQMTQTTSSLSASLGDRVTISCSASQGIRNYLNWYQQKPDGTVKLLIYYTSSLHSGVPSRFSGSGSGTDYSLTISNLEPEDIATYYCQQYSKVPWTFGGGTKLEIK | 2.65 OD450nm | 0.27 OD450nm | 2.68 OD450nm | 0.12 OD450nm | 3.27 nM

The remaining binders from weak to strong by EC50 [5], led by results:

OD450nm (human TPBG-hFc [1]) | OD450nm (human TPBG-hFc [2]) | OD450nm (human TPBG-hFc [3]) | OD450nm (human TPBG-hFc [4]) | EC50 [5] | Binder
2.93 OD450nm | 0.78 OD450nm | 2.93 OD450nm | 0.21 OD450nm | 3.54 nM | 99E12C7H1 (antibody, V domains shown, Mouse hybridoma antibody purified from culture supernatant; also called TPBG antibody; lead antibody) VH: QIQLVQSGPELKKPGETVKISCKPSGYTFTAYGLSWVKQAPGQGFQWMGWINTYSGVPTYTDDFKGRFAFSLETSAGTASLQITNLKNEDTATYFCARSSIPPFEYWGPGTTLTVSS VL: SFVMTQSPKFLLVSVGDRVTITCKASQSVSNDVAWYQQKPGQPPRVLIYFASNRYTGVPDRFTGSGYGTDFTFTISTVQAEDLALYFCQQDYSSPWTFGGGTKLEIK
2.55 OD450nm | 0.3 OD450nm | 2.43 OD450nm | 0.11 OD450nm | 2.34 nM | 39A11G5F2 (antibody, V domains shown, Mouse hybridoma antibody purified from culture supernatant; also called TPBG antibody; lead antibody) VH: QVQLQQSGAELMKPGASMRLSCKATGYTFTGYWLEWIKRRPGHGLEWIGEILPGRGSTNYNEKFKGKATFTAETSSNTAYMQLTSLTTEDSAIYYCARGGRDFDNWGQGTTLTVSS VL: DIQMTQSTSSLSASLGDRVTISCSASQGINNHLNWYQQKPDGTVKLLIYYTSSLHSGVPSRFSGSGSGTDYSLTISNLEPEDIAIYYCQQFSKLPYTFGGGTKVEMK
2.88 OD450nm | 0.56 OD450nm | 2.81 OD450nm | 0.16 OD450nm | 1.72 nM | 106D5G3D10 (antibody, V domains shown, Mouse hybridoma antibody purified from culture supernatant; also called TPBG antibody; lead antibody) VH: EVQLVESGGGLVKPGGSLKLSCAASGFTFSDYGMHWVRQAPEKGLEWVGYISSGTYVVYYADTVKGRFTISRDNAKNTLFLQMTSLRSEDTAIYYCSTYGSNPFDYWGQGTTLTVSS VL: QLVLTQSPAIMSASPGEKVTITCSATSSVSSMHWFQQKPVTSPKLWIYSTSNLASGVPTRFSGSGSGTSYSLTISRMEAEDAATYYCQQRSGYPPIFTFGSGTKLEIK
2.6 OD450nm | 0.48 OD450nm | 2.64 OD450nm | 0.14 OD450nm | 0.85 nM | 103E2E9C2 (antibody, V domains shown, Mouse hybridoma antibody purified from culture supernatant; also called TPBG antibody; lead antibody) VH: EVQLQQSGPVLVKPGASVKMSCEASGYSFIDYYMSWVKQSRGRSLEWIGVFNPYSGEIIYNQKFKGKATLTVDKSSSTAYMELSSLTSEDSGVYSCARLRISYYAIDYWGQGTSVAVSS VL: ENVLTQSPAIMSASPGEKVTMTCRATSSVSSGHFHWYQQKSGASPKVWIYSTSNLASGVPARFSGSGSGTSFSLTISSVEAEDVATYFCQQYSGYPLTFGGGTKLEIK
2.6 OD450nm | 0.46 OD450nm | 2.64 OD450nm | 0.14 OD450nm | 0.63 nM | 28D4E6A9 (antibody, V domains shown, Mouse hybridoma antibody purified from culture supernatant; also called TPBG antibody; lead antibody) VH: DVQLVESGGGLVRPGGSLKLSCAASGFTFSNYVMSWARQSPEKRLEWVAEISTGGSHTYYSDTVTGRFTISRDNAKKALYLEMSSLRSEDTAIYYCIMFYYGSSYSMDYWGQGTSVTVSS VL: DIQMTQSTSSLSASLGDRITISCRASQDIRNYLNWYQQKPDGTVKLLIYHTSRLHSGVPSRFSGSGSGTDYSLTISNLEQEDIATYFCQQGDTLPLTFGAGTRLELK
